“And” between values parts separate entries of the source, which are not always exact repeats. Equal entries are not always repeated. Values belong to the binder of their own block, whether it stands above or below them.
What was measured:
[1] = molecular target: T1, human CSPα L115R, purified from E. coli (human), Q9H3Z4; assay: SDS-PAGE of SDS-resistant oligomers; settings: remark: other sources report otherwise
T1 chain: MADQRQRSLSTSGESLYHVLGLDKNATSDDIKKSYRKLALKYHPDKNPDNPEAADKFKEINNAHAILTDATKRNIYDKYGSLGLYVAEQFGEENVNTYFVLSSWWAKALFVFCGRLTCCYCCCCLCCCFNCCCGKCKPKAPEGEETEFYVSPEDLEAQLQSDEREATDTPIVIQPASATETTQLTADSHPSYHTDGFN

[2] = molecular target: Q9H3Z4; assay: SDS-PAGE of SDS-resistant oligomers; settings: other: SDS-PAGE of SDS-resistant oligomers

- stoichiometry N [1]: 2 and 4
B1: human CSPα L115R, purified from E. coli, Q9H3Z4 1-198 (natural protein)
chain: T1 chain

B2: human CSPα L115R, purified from E. coli (protein)
chain: T1 chain
- HMW oligomers, fold versus WT [2]: 58.9 ± 5.9 fold versus WT

B3: human CSPα L116Δ, purified from E. coli (protein)
chain: MADQRQRSLSTSGESLYHVLGLDKNATSDDIKKSYRKLALKYHPDKNPDNPEAADKFKEINNAHAILTDATKRNIYDKYGSLGLYVAEQFGEENVNTYFVLSSWWAKALFVFCGLTCCYCCCCLCCCFNCCCGKCKPKAPEGEETEFYVSPEDLEAQLQSDEREATDTPIVIQPASATETTQLTADSHPSYHTDGFN
- HMW oligomers, fold versus WT [2]: 13.2 ± 3.9 fold versus WT
